Measured values taken from patent US11813311B2, “Treatment and prevention of metabolic diseases” (Singapore Health Services PTE LTD., priority 2019, dated 2023).
Where two headings read alike, the source gives them in different places.

B1: X203: mouse anti-mouse IL-11 IgG (IgG1κ), neutralising; VH SEQ ID NO:22, VL SEQ ID NO:23 (antibody, V domains shown)
VH: EVQLQQSGPELVKPGASVKIPCKASGYTFTDYNMDWVKQSHGKSLEWIGDINPHNGGPIYNQKFTGKATLTVDKSSSTAYMELRSLTSEDTAVYYCARGELGHWYFDVWGTGTTVTVSS
VL: DIVLTQSPASLAVSLGQRATISCRASKSVSTSGYSYIHWYQQKPGQPPKLLIYLASNLDSGVPARFSGSGSGTDFTLNIHPVEEEDAATYYCQHSRDLPPTFGGGTKLEIK
modifications: Enx203 VH; Enx203 VL
B2: X209: mouse anti-mouse IL-11Rα IgG (IgG1κ), neutralising; VH SEQ ID NO:24, VL SEQ ID NO:25 (antibody, V domains shown)
VH: QVQLQQPGAELVRPGSSVKLSCKASGYTFTNYWMHWLKQRPVQGLEWIGNIGPSDSKTHYNQKFKDKATLTVDKSSSTAYMQLNSLTSEDSAVYYCARGDYVLFTYWGQGTLVTVSA
VL: DIVLTQSPATLSLSPGERATLSCRASQSISNNLHWYQQKSHEAPRLLIKYASQSISGIPARFSGSGSGTDFTLSFSSLETEDFAVYFCQQSYSWPLTFGQGTKLEIK
modifications: Enx209 VH; Enx209 VL

Tests used:
TGFβ1-stimulated HSCs = assay: Inhibition of MMP2 secretion by TGFβ1-stimulated HSCs (IC50); assay type: cell-based, human
Protocol: HSCs (5300, ScienCell) were cultured in stellate cells complete media (5301, ScienCell) on poly-L-lysine-coated plates (2 μg/cm2, 0403, ScienCell).
HSCs were stimulated with TGFβ1(5 ng m1^−1, 24 h) in the presence of IgG (4 μg ml^−1) and varying concentrations of X209 (4 μg ml^−1 to 61 pg ml^−1; 4-fold dilutions). Supernatants were collected and assayed for the amount of secreted MMP2. Dose-response curves were generated by plotting the logarithm of X209 tested concentration (pM) versus corresponding percent inhibition values using least squares (ordinary) fit. The IC50 value was calculated using log(inhibitor) versus normalized response-variable slope equation.
The levels of IL-11 and MMP-2 in equal volumes of cell culture media were quantified using Human IL-11 Quantikine ELISA kit (D1100, R&D Systems) and Total MMP-2 Quantikine ELISA kit (MMP200, R&D Systems), respectively. Total secreted collagen in the cell culture supernatant was quantified using Sirius red collagen detection kit (9062, Chondrex). Total hydroxyproline content in the livers was measured using Quickzyme Total Collagen assay kit (Quickzyme Biosciences). Mouse serum levels of alanine aminotransferease (ALT), cholesterol, and triglycerides were measured using Alanine Transaminase Activity Assay Kit (ab105134, abcam), Cholesterol Assay Kit (ab65390, abcam), and Triglyceride Assay Kit (ab65336, abcam), respectively. […]

[1] = system: mice with HFMCD-induced liver fibrosis; assay: HFMCD fibrosis reversal with switch to normal chow plus antibody; assay type: in vivo, mouse; settings: for regression of Erk activation: after removal of the metabolic stimulus; for reversal of hepatic collagen content: HFMCD 10 weeks then normal chow; for Mmp2 expression / Timp1 expression: mice with severe fibrosis
Protocol: FIGS. 21A to 21L. Inhibition of Il-11 signalling reverses NASH pathologies in preclinical models and HSC-to-myofibroblast transformation. (A) Schematic showing therapeutic dosing regime in NASH reversal experiment for data shown in (B-G). Mice were fed with WDF for 16 weeks to induce NASH and then treated with (10 mg/kg) X209 or IgG for 8 weeks while they were on continuous WDF feeding. (B) Total liver hydroxyproline content, the levels of (C) liver triglycerides, (D) serum ALT, (E), fasting blood glucose, (F) serum triglycerides, and (G) serum cholesterol in mice on NC and IgG- and X209-treated WDF (n≥5/group). (H) Schematic showing reversal experiment in which fibrosis was established by feeding mice HFMCD for 10 weeks and then replacing this with NC and initiating antibody (X203 and X209) therapy. Mice were euthanized at the indicated time points. (I) Total liver hydroxyproline content (dotted line represents the mean value of NC=0.93) and (J) relative mRNA expression of Mmp2/Timp1 at 1-, 3-, 6-weeks after concurrent metabolic intervention (diet switch) and X203, X209, or IgG treatment (n≥3/group). Quantification of ACTA2^+ve immunostaining (scale bars, 200 μm) following incubation (K) with TGFβ1 or (L) with PDGF, either prior to or after the addition of X203, X209, or IgG (n=5/group). (K-L) TGFβ1 (5 ng/ml), PDGF (20 ng/ml), IgG, X203 and, X209 (2 μg/ml). (B-G, K-L) Data are shown as box-and-whisker with median (middle line), 25th-75th percentiles (box) and min-max percentiles (whiskers); (I) data are shown as mean±s.d; (J) data are represented as line chart (mean) and transparencies indicate s.d. (B) Two-tailed Student's t-test (C-G,K-L) two-tailed, Tukey-corrected Student's t-test; (I-J) two-way ANOVA. FC: fold change; NC: normal chow; WDF: Western diet+15% (w/v) fructose; HFMCD: high fat methionine- and choline-deficient.
Furthermore, combination therapies may be beneficial for reversing fibrosis in NASH′. To address these points, severe liver fibrosis was established using HFMCD for 10 weeks, then converted mice to normal chow, mimicking a robust metabolic intervention, and initiated anti-IL-11 treatments in parallel (FIG. 21H).

[2] = after three weeks of antibody treatment
[3] = at six weeks of antibody treatment

IC50 (TGFβ1-stimulated HSCs; read-out: IC50 for HSC activation) [nM] | IC50 (TGFβ1-stimulated HSCs; TGFβ1 5 ng/ml, 24 h, 4 μg/ml to 61 pg/ml, 4-fold dilutions, read-out: IC50, blocking MMP2 secretion from HSCs) [nM] | Molecule | regression of Erk activation [1] | reversal of hepatic collagen content [1, 2] [%] | reversal of hepatic collagen content [1, 3] [%] | Mmp2 expression [1] | Timp1 expression [1]
0.0401 |  | B1 | accelerated | 18 | 37 | rapidly upregulated | downregulated
 | 0.0058 | B2 | accelerated | 24 | 46 | rapidly upregulated | downregulated
